In US20140120095A1 (Boehringer Ingelheim, published 2014):

Columns and labels:
[1] = biological target: T1, recombinant human DLL4 (human, UniProt Q9NR61 25-522); assay: competition AlphaScreen, biot-hDLL4/hNotch1-Fc
T1 construct: also called rhDLL4; hDLL4
Method: In brief, 1 nM biotinylated human DII4 is captured on streptavidin-coated donor beads (20 μg/mL), while 0.4 nM of the receptor human Notch1 (as a Fc fusion protein) is captured on anti-human Fc VHH-coated acceptor beads (20 μg/mL). Both loaded beads are incubated together with a dilution range of the competing VHH (FIG. 4 A-E).

[2] = biological target: T2, cynomolgus DLL4 overexpressed on cells (cynomolgus, UniProt Q9NR61 27-685 (human entry)); assay: FACS titration on HEK293-cDLL4 cells, MCF
T2 construct: also called cyno DII4; cDLL4
T2 chain: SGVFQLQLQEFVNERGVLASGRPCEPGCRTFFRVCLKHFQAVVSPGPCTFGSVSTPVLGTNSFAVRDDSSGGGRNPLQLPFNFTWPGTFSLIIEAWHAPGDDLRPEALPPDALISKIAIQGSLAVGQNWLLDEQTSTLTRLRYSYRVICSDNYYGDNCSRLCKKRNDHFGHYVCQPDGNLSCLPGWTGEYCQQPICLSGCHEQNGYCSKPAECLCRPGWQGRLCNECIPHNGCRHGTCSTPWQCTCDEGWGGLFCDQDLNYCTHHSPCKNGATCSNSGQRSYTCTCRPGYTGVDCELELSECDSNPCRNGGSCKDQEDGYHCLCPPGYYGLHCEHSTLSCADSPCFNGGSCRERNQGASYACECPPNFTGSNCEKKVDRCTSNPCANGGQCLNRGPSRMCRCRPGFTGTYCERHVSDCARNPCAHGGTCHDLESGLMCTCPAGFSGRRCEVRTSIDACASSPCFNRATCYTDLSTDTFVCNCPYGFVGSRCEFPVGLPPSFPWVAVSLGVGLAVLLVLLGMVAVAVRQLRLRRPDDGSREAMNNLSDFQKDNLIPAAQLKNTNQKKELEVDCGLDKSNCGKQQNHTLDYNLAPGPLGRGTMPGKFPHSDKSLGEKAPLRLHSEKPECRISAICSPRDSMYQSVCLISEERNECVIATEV
Procedure, shortened: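 HEK293 cells overexpressing DLL4 (transient or stable) were incubated with VHH titrations for 30 min on ice. After washing, binding was detected with anti-c-myc-Alexa647 by flow cytometry, and the mean MCF was used to calculate EC50.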

[3] = biological target: T3, human DLL4 overexpressed on cells (human, UniProt Q9NR61 27-685); assay: competitive FMAT, hNotch1-Fc on CHO-hDLL4
T3 construct: full length human DLL4 on CHO or HEK293 cells; also called CHO-hDLL4; CHO-hDII4

[4] = biological target: T4, recombinant human DLL4 (C-terminally His-tagged extracellular domain, R&D Systems) (human, UniProt Q9NR61 25-522, biotinylated in the competition ELISA); assay: binding ELISA on recombinant human DLL4, OD 450 nm
T4 construct: also called rhDLL4; hDLL4

[5] = biological target: T5, mouse DLL4 expressed on CHO cells (mouse, UniProt Q9JI71 27-686); assay: competition FMAT, labelled hNotch1-Fc on CHO-mDLL4 cells
T5 construct: whole, on cells; also called mDLL4; CHO-mDLL4
T5 sequence (Q9JI71 27-686): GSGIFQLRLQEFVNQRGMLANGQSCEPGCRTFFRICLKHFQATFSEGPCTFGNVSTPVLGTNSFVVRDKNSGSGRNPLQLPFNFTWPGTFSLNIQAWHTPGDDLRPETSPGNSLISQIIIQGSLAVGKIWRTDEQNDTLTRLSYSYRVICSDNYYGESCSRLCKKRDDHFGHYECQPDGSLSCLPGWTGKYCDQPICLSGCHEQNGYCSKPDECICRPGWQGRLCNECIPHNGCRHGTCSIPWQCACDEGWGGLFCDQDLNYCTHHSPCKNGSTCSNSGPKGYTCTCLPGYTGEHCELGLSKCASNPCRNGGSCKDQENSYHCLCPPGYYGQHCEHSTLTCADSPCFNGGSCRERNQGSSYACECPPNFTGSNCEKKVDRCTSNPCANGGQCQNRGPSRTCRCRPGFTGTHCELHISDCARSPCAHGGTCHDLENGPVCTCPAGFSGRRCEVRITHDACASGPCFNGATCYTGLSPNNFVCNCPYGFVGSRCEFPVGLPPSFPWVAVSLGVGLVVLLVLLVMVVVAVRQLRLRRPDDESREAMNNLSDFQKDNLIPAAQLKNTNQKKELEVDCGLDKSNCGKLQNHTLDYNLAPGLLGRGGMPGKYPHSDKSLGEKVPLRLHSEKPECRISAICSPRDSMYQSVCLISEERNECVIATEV

[6] = biological target: human DLL4 expressed on cells (CHO-hDLL4; HEK293-hDLL4) (human, UniProt Q9NR61 27-685); assay: cell-based or functional assay
[7] = biological target: T4, recombinant human DLL4 (C-terminally …); assay: SPR (Biacore), recombinant human DLL4
[8] = biological target: T6, human Jagged-1 (Alexis) (human, UniProt P78504 34-1067, limits assumed); assay: binding ELISA on coated human Jagged-1 (Example 5.8, Example 7), OD 405 nm
T6 construct: also called hJag-1; hJAG1

B1: DLLBII56A09 (VHH)
VHH: EVQLVESGGGLVQPGGSLRLSCAASGFTFDDYAIGWFRQAPGKEPEGISCISSSGGITYYADSVKGRFTTSRDNAKNTVYLQMNSLKPEDTAVYYCATPGIAACRGIHYTGQGTQVTVSS
notes: also called 56A9; DLLBII56A9
IC50 [1]: 1.2 nM
EC50 (read off the curve) [2]: ~3 nM
IC50 [3]: 10.6 nM

B2: DLLBII101G08 (VHH)
VHH: EVQLVESGGGLVQAGGSLRLSCAASGRTFSSYAMAWFRQAPGKEREFVAAIRWSGGTAYYADSVQGRFTISRDNAKNTVYLQMNSLKPEDTAVYYCANRAADTRLGPYEYDYWGQGTQVTVSS
notes: also called 101G8; DLLBII101G8
EC50 (read off the curve) [2]: ~9 nM
IC50 [3]: 24.6 nM

B3: DLLBII101G08 (VHH, not shown: small tags and cut ends)
VHH: EVQLVESGGGLVQAGGSLRLSCAASGRTFSSYAMAWFRQAPGKEREFVAAIRWSGGTAYYADSVQGRFTISRDNAKNTVYLQMNSLKPEDTAVYYCANRAADTRLGPYEYDYWGQGTQVTVSS
notes: parent VHH; also called 101G08 (wt); 101G8
EC50 (read off the curve) [4]: ~4 nM

B4: DLLBII129B05 (VHH, not shown: small tags and cut ends)
VHH: EVQLVESGGGLVQAGGSLRLSCAASGRTFSSYAMAWYRQAPGKEREYVAAIRWSGGTAYYADSVQGRFTISRDNAKNTVYLQMNSLKPEDTAVYYCANRAPDTRLAPYEYDHWGQGTQVTVSS
IC50 [5]: 15.9 nM
EC50 (read off the curve) [4]: ~0.7 nM
IC50, DLL4-mediated reporter assay (hDLL4) [6]: 108 nM
Kd [7]: 0.2 nM
koff [7]: 7.9e-05 s⁻¹
kon [7]: 340000 M⁻¹ s⁻¹

B5: DLLBII129E11 (VHH, not shown: small tags and cut ends)
VHH: EVQLVESGGGLVQAGGSLRLSCAASGRTFSSYAMAWYRQAPGKEREYVAAIRWSGGTAYYADSVQGRFTISRDNAKNTVYLQMNSLKPEDTAVYYCANRAPDTRLRPYLYDYWGQGTQVTVSS
EC50 (read off the curve) [4]: ~0.7 nM

B6: DLLBII129D08 (VHH, not shown: small tags and cut ends)
VHH: EVQLVESGGGLVQAGGSLRLSCAASGRTFSSYAMAWYRQAPGKEREYVAAIRWSGGTAYYADSVQGRFTISRDNAKNTVYLQMNSLKPEDTAVYYCANRAPDTRLEPYLYDYWGQGTQVTVSS
EC50 (read off the curve) [4]: ~0.7 nM

B7: DLLBII115A05 (VHH)
VHH: EVQLVESGGGLVQPGGSLRLSCAASGFTFGSYDMSWVRRSPGKGPEWVSSINSGGGSTYYADFVKGRFTISRDNAKNTLYLQMNSLKPEDTAVYYCAADRYIRARQGDYWGAYEYDYWGQGTQVTVSS
notes: also called 115A5; DLLBII115A5
IC50 [1]: 5 nM
EC50 (read off the curve) [2]: ~4 nM
IC50 [3]: 22 nM

B8: DLLBII133G05 (VHH, not shown: small tags and cut ends)
VHH: EVQLVESGGGLVQPGGSLRLSCAASGFTFGSYDMSWVRRSPGKGPEWVSAINSGGGSTYYTDYVKGRFTISRDNAKNTLYLQMNSLKPEDTAVYYCAADRYIWARQGEYWGAYAYDYWGQGTQVTVSS
binding result [8]: no binding (tested: log[M] -6.1 (about 8e-7 M))

B9: DLLBII133A09 (VHH, not shown: small tags and cut ends)
VHH: EVQLVESGGGLVQPGGSLRLSCAASGFTFGSYDMSWVRRSPGKGPEWVSAINSGGGSTYYADYVKGRFTISRDNAKNTLYLQMNSLKPEDTAVYYCAADRYIWARQGEYWGAYAYDYWGQGTQVTVSS
binding result [8]: no binding (tested: log[M] -6.1 (about 8e-7 M))

B10: DLLBII015 (VHH, not shown: small tags and cut ends)
VHH: EVQLVESGGGLVQPGGSLRLSCAASGFTIGSYDMSWVRRSPGKGPEWVSAINSGGGSTYYADYVKGRFTISRDNAKNTLYLQMNSLKPEDTAVYYCAADRYIWARQGEYWGAYAYDYWGQGTQVTVSS
binding result [8]: no binding (tested: log[M] -6.1 (about 8e-7 M))

B11: DLLBII136C07 (VHH, not shown: small tags and cut ends)
VHH: EVQLVESGGGLVQPGGSLRLSCAASGFTFGSYDMSWVRRSPGKGPEWVSSINSGGGSTYYADYVKGRFTISRDNAKNTLYLQMNSLKPEDTAVYYCAADRYIWARQGEYWGAYEYDYWGQGTQVTVSS
IC50 [5]: 50.8 nM
IC50, DLL4-mediated reporter assay (hDLL4) [6]: 112 nM
Kd [7]: 1 nM
koff [7]: 0.00052 s⁻¹
kon [7]: 550000 M⁻¹ s⁻¹
binding result [8]: no binding (tested: log[M] -6.1 (about 8e-7 M))
